Results on four molecules are retold here after article PMC11696179, “Molecular condensation of the CO/NF-YB/NF-YC/FT complex gates floral transition in Arabidopsis” (The EMBO Journal, 2024).

To fix the notation:
T1: NF-YC9-GFP, recombinant (Arabidopsis thaliana, UniProt Q8L4B2 1-231)
T1 chain: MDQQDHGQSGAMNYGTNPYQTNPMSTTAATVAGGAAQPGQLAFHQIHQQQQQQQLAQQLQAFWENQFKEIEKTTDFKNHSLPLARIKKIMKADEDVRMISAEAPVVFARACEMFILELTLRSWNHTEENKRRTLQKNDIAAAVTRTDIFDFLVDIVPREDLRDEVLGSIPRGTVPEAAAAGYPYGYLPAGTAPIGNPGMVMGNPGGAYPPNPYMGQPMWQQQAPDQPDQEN

T2: CO/NF-YC9 mixture (mCherry-CO with NF-YC9-GFP), immobilised together (Arabidopsis thaliana, UniProt Q39057 1-373; Q8L4B2 1-231)
T2 chain 1: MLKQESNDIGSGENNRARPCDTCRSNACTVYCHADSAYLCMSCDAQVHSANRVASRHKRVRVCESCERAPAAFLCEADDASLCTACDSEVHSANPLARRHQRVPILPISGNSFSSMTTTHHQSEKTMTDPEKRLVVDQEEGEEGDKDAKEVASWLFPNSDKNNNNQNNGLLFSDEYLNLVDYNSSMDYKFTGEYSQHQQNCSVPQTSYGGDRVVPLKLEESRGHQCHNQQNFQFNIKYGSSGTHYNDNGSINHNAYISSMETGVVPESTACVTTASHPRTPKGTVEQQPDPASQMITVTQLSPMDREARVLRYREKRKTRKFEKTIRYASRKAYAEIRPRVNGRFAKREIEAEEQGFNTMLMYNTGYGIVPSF
T2 chain 2: T1 chain

T3: mCherry-CO (CONSTANS), recombinant (Arabidopsis thaliana, UniProt Q39057 1-373)
T3 construct: CONSTANS (CO), Arabidopsis thaliana; No tag cleavage step is described; also called SUMO-mCherry-CO; source: E. coli Rosetta pLysS, purified (HisTrap; size exclusion when necessary); not shown: mCherry, N-terminal, kept
T3 sequence (looked up): T2 chain 1

B1: mCherry-CO (CONSTANS), recombinant (natural protein)
chain: T2 chain 1
B2: NF-YB2, recombinant (natural protein, Arabidopsis thaliana, UniProt Q9FGJ3 1-190, looked up)
chain: MGDSDRDSGGGQNGNNQNGQSSLSPREQDRFLPIANVSRIMKKALPANAKISKDAKETMQECVSEFISFVTGEASDKCQKEKRKTINGDDLLWAMTTLGFEDYVEPLKVYLQRFREIEGERTGLGRPQTGGEVGEHQRDAVGDGGGFYGGGGGMQYHQHHQFLHQQNHMYGATGGGSDSGGGAASGRTRT
notes: Nuclear Factor-Y subunit B2 (NF-YB2), Arabidopsis thaliana; Unlabelled form, as used in SPR; also called His-NF-YB2; source: E. coli Rosetta pLysS, purified (HisTrap; size exclusion when necessary)
B3: NF-YB2, recombinant, labelled with Alexa Fluor 647 (natural protein, Arabidopsis thaliana, UniProt Q9FGJ3 1-190, looked up)
chain: B2 chain
modifications: Alexa Fluor 647 label (site not stated)
notes: Nuclear Factor-Y subunit B2 (NF-YB2), Arabidopsis thaliana; Same construct as m3, with the dye, as used for TIRF single-particle imaging; also called NF-YB2 (labeled by Alexa fluor 647); NF-YB2 with Alex647; source: E. coli Rosetta pLysS, purified (HisTrap; size exclusion when necessary)
B4: NF-YC9-GFP, recombinant (natural protein, Arabidopsis thaliana, UniProt Q8L4B2 1-231, looked up)
chain: T1 chain
notes: Nuclear Factor-Y subunit C9 (NF-YC9), Arabidopsis thaliana; No tag cleavage step is described; also called MBP-NF-YC9-GFP; source: E. coli Rosetta pLysS, purified (HisTrap; size exclusion when necessary); not shown: GFP, C-terminal, kept

Series [1] has as its target T1, NF-YC9-GFP, recombinant. Put plainly: SPR; bivalent model. (In general: In SPR one partner is held on a chip, and binding of the other changes the refractive index at the surface.)
Series [2] concerns the molecule itself. Put plainly: SPR; bivalent model.
For series [3], the target named is T1, NF-YC9-GFP, recombinant. Put plainly: SPR; bivalent model, kd1.
Series [4] concerns the molecule itself. Put plainly: SPR; bivalent model, kd1.
Series [5] concerns the target T2, CO/NF-YC9 mixture (mCherry-CO with …). Put plainly: SPR; bivalent model.
For series [6], the target named is B1. Put plainly: SPR; bivalent model.
Series [7] deals with T2, CO/NF-YC9 mixture (mCherry-CO with …). The experiment in a line: SPR; bivalent model, kd1.
Series [8] has as its target B1. The experiment in a line: SPR; bivalent model, kd1.
Series [9] addresses T3, mCherry-CO (CONSTANS), recombinant. Put plainly: SPR; Biacore T200, 25 °C; CO, NF-YC9 or a CO/NF-YC9 mixture (4:1) amine-coupled to a CM5 chip (1000-2000 RU); analytes NF-YB2, CO, NF-YC9 in twofold dilutions; HBST (10 mM HEPES, 150 mM NaCl, 3 mM EDTA, 0.05% Tween 20, pH 7.4); bivalent analyte model. As to conditions: both partners purified.
Series [10] concerns the target B4. The series is described as above. The note with it: both partners purified.
Series [11] has as its target T3, mCherry-CO (CONSTANS), recombinant. Put plainly: single-particle colocalisation by TIRF microscopy; 10 nM of each of two recombinant proteins mixed in 20 mM HEPES, 150 mM NaCl, pH 7.4 for 5 min, put on cover glass. The note with it: both partners purified.
Series [12] has as its target B4. Described as above. The note with it: both partners purified.
Series [13] concerns the molecule itself. Put plainly: SPR; Biacore T200, 25 °C; CO, NF-YC9 or a CO/NF-YC9 mixture (4:1) amine-coupled to a CM5 chip (1000-2000 RU); analytes NF-YB2, CO, NF-YC9 in twofold dilutions; HBST (10 mM HEPES, 150 mM NaCl, 3 mM EDTA, 0.05% Tween 20, pH 7.4); bivalent analyte model.

In the case of B1, the results for the Kd in series [1] and in [2] were 53.6 nM and 53.8 nM, respectively. The koff in series [3] turned out to be 0.00138 s⁻¹; in series [4], 0.0014 s⁻¹.

In the case of B2, the Kd is 40.6 nM in [5], 100 nM in series [6], 41.6 nM in series [1] and 23.7 nM in series [2]. Further, the koff is 0.00139 s⁻¹ in series [7], 0.00202 s⁻¹ in [8], 0.00173 s⁻¹ in [3] and 0.00137 s⁻¹ in series [4]. Besides, the binding result in series [9] and in [10] was “binds” throughout.

As to B3, the binding result in [11] and in series [12] was “binds” throughout.

Take B4: the Kd in series [2] came to 27.8 nM. The molecule also came in with a koff in [4] of 0.0017 s⁻¹. Further, the binding result in series [11] and in series [13] was “binds” in each case.

In general, koff refers to the first-order rate constant of dissociation.
